Measured values reported in the supplement of paper PMC10065799, “High-throughput profiling of sequence recognition by tyrosine kinases and SH2 domains using bacterial peptide display” (eLife, 2023).

Tests used:
[1] = target: Fes (UniProt P07332); test: phosphorylation enrichment, bacterial display (enrichment ratio); higher = better substrate or ligand; peptides without Tyr show the background
[2] = target: Fyn (UniProt P06241); test: as above
[3] = target: Hck (UniProt P08631); test: as above
[4] = target: EPHB2 (UniProt P29323); test: as above
[5] = test system: AncSZ; test: as above
[6] = target: FGFR1 (UniProt P11362); test: as above
[7] = target: MERTK (UniProt Q12866); test: as above
[8] = target: EPHB1 (UniProt P54762); test: as above
[9] = target: Jak2 (UniProt O60674); test: as above
[10] = test system: c-Abl (mouse); test: as above
[11] = target: FGFR3 (UniProt P22607); test: as above
[12] = test system: c-Src; test: as above
[13] = test system: Fer (mouse); test: as above
[14] = target: Grb2 SH2 (UniProt P62993); test: SH2 binding enrichment of the phosphorylated peptide, bacterial display (enrichment ratio); higher = better substrate or ligand; peptides without Tyr show the background
[15] = target: c-Src SH2; test: as above
[16] = target: SHP2-C SH2; test: as above
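Wherever SH2 binding enrichment of the phosphorylated peptide, bacterial display is given: peptide library displayed on the E. coli surface as eCPX fusions, selected cells deep-sequenced, score is each peptide's frequency after selection divided by its frequency in the input.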
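Wherever phosphorylation enrichment, bacterial display is given: 11-residue human phosphosite peptides and single-mutation variants displayed on the E. coli surface, counted by deep sequencing, each peptide's frequency after selection divided by its frequency in the unselected input library; frequency after pTyr selection over input frequency; kinase dosed for 20-30% of maximal phosphorylation in three min.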

Chain of EPHB2 (P29323 whole entry, looked up): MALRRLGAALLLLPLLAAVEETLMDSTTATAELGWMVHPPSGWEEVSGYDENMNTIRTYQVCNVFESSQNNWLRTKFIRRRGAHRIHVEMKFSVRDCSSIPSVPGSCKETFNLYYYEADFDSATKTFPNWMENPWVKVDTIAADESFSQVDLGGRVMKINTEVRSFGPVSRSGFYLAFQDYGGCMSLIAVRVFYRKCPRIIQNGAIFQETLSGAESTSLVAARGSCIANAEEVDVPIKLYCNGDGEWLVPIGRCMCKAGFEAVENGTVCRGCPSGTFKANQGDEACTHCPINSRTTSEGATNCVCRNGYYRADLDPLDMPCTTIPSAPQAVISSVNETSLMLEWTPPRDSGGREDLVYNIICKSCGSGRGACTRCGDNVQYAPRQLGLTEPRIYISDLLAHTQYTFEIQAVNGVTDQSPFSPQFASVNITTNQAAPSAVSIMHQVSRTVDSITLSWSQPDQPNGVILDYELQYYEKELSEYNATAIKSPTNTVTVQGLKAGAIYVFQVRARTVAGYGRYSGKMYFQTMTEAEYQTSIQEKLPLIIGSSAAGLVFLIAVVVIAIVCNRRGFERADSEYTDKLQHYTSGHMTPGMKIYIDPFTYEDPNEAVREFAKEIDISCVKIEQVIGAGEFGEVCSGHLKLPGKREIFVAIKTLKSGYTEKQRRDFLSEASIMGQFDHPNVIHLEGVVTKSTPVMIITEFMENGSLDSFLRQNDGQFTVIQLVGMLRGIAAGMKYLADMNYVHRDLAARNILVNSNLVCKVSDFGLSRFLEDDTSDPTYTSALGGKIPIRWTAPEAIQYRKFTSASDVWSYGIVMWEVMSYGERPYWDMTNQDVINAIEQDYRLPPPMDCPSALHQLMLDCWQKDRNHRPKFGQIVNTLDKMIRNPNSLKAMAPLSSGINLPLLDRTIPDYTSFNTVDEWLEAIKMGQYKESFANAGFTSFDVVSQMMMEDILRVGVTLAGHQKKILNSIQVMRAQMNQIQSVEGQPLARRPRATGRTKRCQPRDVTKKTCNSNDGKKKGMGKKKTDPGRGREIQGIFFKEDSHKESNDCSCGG
Chain of FGFR1 (P11362 whole entry, looked up): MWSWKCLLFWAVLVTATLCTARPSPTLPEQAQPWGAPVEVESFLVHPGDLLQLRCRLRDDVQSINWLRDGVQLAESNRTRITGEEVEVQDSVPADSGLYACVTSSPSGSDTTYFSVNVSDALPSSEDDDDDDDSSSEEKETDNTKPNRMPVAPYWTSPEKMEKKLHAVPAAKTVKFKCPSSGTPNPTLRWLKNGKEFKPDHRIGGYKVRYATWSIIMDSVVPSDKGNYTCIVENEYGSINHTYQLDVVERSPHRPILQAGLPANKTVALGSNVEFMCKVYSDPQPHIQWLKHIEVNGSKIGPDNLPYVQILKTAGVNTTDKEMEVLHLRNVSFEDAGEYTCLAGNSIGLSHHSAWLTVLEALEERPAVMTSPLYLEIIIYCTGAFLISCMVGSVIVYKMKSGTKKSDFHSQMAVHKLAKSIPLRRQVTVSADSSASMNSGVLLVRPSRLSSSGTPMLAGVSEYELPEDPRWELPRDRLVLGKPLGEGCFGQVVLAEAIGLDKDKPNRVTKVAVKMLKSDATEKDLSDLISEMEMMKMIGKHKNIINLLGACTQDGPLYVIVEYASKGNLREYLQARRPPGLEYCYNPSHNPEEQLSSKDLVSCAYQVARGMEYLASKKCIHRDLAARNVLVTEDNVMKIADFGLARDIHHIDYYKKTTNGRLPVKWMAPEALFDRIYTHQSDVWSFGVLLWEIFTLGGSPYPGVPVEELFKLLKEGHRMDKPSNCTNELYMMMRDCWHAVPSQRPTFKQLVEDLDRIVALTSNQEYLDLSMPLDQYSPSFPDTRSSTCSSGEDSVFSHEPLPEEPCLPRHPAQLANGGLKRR
Chain of Hck (P08631 whole entry, looked up): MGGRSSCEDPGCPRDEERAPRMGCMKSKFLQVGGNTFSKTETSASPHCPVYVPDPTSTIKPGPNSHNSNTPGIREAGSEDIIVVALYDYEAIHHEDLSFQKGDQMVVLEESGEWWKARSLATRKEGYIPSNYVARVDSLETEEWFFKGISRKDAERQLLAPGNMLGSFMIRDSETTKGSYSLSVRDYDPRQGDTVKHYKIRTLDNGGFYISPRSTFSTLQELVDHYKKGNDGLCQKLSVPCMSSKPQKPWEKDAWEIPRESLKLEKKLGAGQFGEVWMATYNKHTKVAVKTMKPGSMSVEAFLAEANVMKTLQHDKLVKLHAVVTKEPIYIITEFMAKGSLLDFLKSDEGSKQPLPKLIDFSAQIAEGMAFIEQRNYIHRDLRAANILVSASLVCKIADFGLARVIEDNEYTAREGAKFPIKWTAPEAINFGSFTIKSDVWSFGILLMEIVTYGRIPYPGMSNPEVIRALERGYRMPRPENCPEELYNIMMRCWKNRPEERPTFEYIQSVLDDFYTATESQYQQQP
Chain of Jak2 (O60674 whole entry, looked up): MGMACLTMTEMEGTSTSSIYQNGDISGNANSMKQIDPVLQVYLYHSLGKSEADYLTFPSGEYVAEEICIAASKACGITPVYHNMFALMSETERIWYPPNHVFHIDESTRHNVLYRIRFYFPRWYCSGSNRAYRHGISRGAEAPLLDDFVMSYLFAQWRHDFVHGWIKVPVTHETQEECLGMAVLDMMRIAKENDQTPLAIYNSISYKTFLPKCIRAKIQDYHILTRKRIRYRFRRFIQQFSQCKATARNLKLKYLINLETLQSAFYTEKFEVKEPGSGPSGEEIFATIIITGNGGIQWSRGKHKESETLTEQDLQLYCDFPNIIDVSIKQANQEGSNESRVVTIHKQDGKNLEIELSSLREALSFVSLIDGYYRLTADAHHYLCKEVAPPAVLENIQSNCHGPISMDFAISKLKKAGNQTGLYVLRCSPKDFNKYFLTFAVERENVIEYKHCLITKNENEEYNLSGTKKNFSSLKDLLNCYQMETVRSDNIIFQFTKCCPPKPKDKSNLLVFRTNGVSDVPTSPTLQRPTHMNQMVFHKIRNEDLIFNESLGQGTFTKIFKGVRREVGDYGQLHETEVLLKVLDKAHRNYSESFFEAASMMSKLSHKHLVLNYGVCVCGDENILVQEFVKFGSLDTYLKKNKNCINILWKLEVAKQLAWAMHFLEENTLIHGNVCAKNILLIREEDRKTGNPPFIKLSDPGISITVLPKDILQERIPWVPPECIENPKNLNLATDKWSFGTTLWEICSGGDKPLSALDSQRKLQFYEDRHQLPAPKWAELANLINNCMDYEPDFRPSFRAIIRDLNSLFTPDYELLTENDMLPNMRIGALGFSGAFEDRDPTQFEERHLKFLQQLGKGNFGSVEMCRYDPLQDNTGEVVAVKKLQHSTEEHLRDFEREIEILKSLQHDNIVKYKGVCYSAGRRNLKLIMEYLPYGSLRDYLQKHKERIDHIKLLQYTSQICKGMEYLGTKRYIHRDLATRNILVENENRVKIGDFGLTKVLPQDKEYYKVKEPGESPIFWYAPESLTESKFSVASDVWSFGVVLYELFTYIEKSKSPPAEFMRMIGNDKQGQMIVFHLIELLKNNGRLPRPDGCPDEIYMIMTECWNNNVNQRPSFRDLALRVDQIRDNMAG
Chain of Fyn (P06241 whole entry, looked up): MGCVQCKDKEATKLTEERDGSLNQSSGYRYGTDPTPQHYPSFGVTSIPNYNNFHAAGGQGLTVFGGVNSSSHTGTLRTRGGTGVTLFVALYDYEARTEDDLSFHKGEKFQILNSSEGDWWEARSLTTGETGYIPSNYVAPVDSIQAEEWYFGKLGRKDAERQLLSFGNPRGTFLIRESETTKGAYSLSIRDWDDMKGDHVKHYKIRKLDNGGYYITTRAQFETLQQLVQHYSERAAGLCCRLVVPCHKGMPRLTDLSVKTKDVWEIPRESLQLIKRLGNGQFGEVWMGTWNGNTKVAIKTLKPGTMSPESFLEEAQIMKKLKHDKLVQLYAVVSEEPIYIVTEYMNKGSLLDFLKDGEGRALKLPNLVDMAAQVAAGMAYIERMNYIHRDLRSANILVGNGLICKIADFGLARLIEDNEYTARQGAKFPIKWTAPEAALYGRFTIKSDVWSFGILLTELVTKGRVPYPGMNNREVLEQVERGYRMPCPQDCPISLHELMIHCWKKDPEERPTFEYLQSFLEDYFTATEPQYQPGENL
Chain of Fes (P07332 whole entry, looked up): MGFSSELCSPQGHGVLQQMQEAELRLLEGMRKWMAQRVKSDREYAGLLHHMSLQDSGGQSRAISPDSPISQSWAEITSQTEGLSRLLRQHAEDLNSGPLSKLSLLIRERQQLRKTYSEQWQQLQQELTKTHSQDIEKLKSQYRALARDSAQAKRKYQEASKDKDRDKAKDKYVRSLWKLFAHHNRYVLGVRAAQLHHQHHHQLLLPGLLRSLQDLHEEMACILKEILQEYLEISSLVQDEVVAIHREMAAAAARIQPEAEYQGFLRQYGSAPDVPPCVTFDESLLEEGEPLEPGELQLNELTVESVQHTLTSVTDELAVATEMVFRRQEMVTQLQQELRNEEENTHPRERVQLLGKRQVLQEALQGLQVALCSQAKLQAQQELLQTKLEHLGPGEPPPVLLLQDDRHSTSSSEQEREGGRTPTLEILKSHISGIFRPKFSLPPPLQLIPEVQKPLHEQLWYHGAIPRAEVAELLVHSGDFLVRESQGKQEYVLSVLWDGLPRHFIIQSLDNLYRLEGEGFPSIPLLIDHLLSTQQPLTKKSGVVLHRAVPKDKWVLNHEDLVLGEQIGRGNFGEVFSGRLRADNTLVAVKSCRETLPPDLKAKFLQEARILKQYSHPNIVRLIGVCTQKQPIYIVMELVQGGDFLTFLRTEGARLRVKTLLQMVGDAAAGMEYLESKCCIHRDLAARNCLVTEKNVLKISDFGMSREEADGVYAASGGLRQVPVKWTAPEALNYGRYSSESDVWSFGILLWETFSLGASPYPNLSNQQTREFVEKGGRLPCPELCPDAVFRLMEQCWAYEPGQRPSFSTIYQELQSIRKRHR

Row | Sequence | SH2 binding enrichment [14] | SH2 binding enrichment [15] | SH2 binding enrichment [16] | phosphorylation enrichment [1] | phosphorylation enrichment [2] | phosphorylation enrichment [3] | phosphorylation enrichment [4] | phosphorylation enrichment [5] | phosphorylation enrichment [6] | phosphorylation enrichment [7] | phosphorylation enrichment [8] | phosphorylation enrichment [9] | phosphorylation enrichment [10] | phosphorylation enrichment [11] | phosphorylation enrichment [12] | phosphorylation enrichment [13]
1 | SHSMRYFDTSV [HLA-C_Y31_A35S] | 0.932 | 0.367 | 0.885 | 0.576 | 0.432 | 0.393 | 0.448 | 0.581 | 0.47 | 0.386 | 0.482 | 0.543 | 0.455 | 0.463 | 0.432 | 0.37
2 | EREFKYGAHNF [OAT_Y50_YF] | 0.893 | 0.399 | 0.785 | 0.608 | 0.442 | 0.386 | 0.375 | 0.516 | 0.368 | 0.359 | 0.392 | 0.483 | 0.401 | 0.482 | 0.388 | 0.36
3 | EFISENCGEII [EZH2_Y641_Y641N] | 1.05 | 0.62 | 0.714 | 1.1 | 0.581 | 0.495 | 0.57 | 1.31 | 0.487 | 0.437 | 0.585 | 1.13 | 0.71 | 0.706 | 0.423 | 0.478
4 | KNKNRCKNILP [PTPN11_Y279_Y279C] | 0.861 | 0.892 | 0.598 | 0.942 | 0.374 | 0.481 | 0.503 | 0.765 | 0.617 | 0.581 | 0.448 | 1.48 | 1.37 | 0.959 | 0.565 | 0.488
5 | PGVNFYFQVSA | 0.682 | 0.446 | 0.524 | 1.93 | 0.414 | 0.526 | 1.24 | 1.41 | 0.557 | 0.445 | 1.27 | 1.61 | 1.29 | 1 | 0.523 | 0.724
6 | SHLSAYPALEG [CD5_Y465] | 0.897 | 0.618 | 0.687 | 0.591 | 0.375 | 0.372 | 0.398 | 0.611 | 0.404 | 0.324 | 0.351 | 0.483 | 0.531 | 0.411 | 0.343 | 0.409
7 | GGFNNYGFGND [HNRNPH3_Y159_YF] | 0.875 | 0.467 | 0.697 | 0.841 | 0.465 | 0.437 | 0.902 | 0.654 | 0.514 | 0.397 | 0.733 | 0.627 | 0.548 | 0.611 | 0.431 | 0.463
8 | FIGVTYKNEED [PDGFRA_Y993_YF] | 1.31 | 0.555 | 0.571 | 1.11 | 0.432 | 0.451 | 0.484 | 1.02 | 0.584 | 0.336 | 0.565 | 0.92 | 0.649 | 0.629 | 0.491 | 0.49
9 | KNRDVSSSDFF [USP24_Y2134_Y2134S_YF] | 0.882 | 0.424 | 0.635 | 0.71 | 0.432 | 0.425 | 0.393 | 0.701 | 0.365 | 0.436 | 0.444 | 0.641 | 0.583 | 0.539 | 0.399 | 0.427
10 | MSRFIYSTDFF [NTRK1_Y676_D674Y_YF] | 1.14 | 0.806 | 1.05 | 1.31 | 4.15 | 2.49 | 2.11 | 0.887 | 1.47 | 8.57 | 2.29 | 1.04 | 0.664 | 1.27 | 4.05 | 0.887

The next lines start with results.

Row | SH2 binding enrichment [14] | SH2 binding enrichment [15] | SH2 binding enrichment [16] | Sequence | phosphorylation enrichment [1] | phosphorylation enrichment [2] | phosphorylation enrichment [3] | phosphorylation enrichment [4] | phosphorylation enrichment [5] | phosphorylation enrichment [6] | phosphorylation enrichment [7] | phosphorylation enrichment [8] | phosphorylation enrichment [9] | phosphorylation enrichment [10] | phosphorylation enrichment [11] | phosphorylation enrichment [12] | phosphorylation enrichment [13]
11 | 0.971 | 0.523 | 0.811 | DVVKDCAFVHM [RBM14_Y114_Y114C] | 0.993 | 0.488 | 0.486 | 0.535 | 0.899 | 0.573 | 0.401 | 0.582 | 0.71 | 0.645 | 0.623 | 0.384 | 0.498
12 | 0.887 | 0.514 | 0.408 | THQKSYQPGRK [CEFIP_Y210_N208K] | 0.472 | 0.371 | 0.52 | 0.432 | 0.437 | 0.433 | 0.308 | 0.273 | 0.349 | 0.35 | 0.362 | 0.322 | 0.464
13 | 0.815 | 0.454 | 0.854 | KDKLPYPFDDP [GPX2_Y125_YF] | 1.01 | 0.556 | 0.498 | 0.792 | 1.04 | 0.567 | 0.512 | 0.457 | 0.821 | 0.581 | 0.638 | 0.486 | 0.533
14 | 1.09 | 0.455 | 0.664 | VTSLKYSTSPF [BRIP1_Y916_YF] | 0.695 | 0.433 | 0.464 | 0.507 | 0.605 | 0.435 | 0.412 | 0.469 | 0.711 | 0.482 | 0.689 | 0.403 | 0.408
15 | 1 | 0.479 | 0.913 | FQKDVYNIPPS [NEDD9_Y177_D178N_YF] | 0.572 | 2.54 | 1.31 | 0.411 | 0.613 | 0.47 | 0.883 | 0.437 | 1.75 | 0.525 | 0.468 | 2.21 | 0.371
16 | 0.915 | 0.619 | 0.699 | EDGCIYPGTIA [SMN1_Y109_A111G] | 1.25 | 0.595 | 0.552 | 0.613 | 0.947 | 0.553 | 0.529 | 0.7 | 1.04 | 0.868 | 0.856 | 0.567 | 0.555
17 | 0.762 | 0.413 | 0.621 | GHGEEYPVAGA [NOTCH3_Y2221_A2223V] | 0.755 | 0.438 | 0.421 | 0.424 | 0.763 | 0.481 | 0.373 | 0.451 | 0.682 | 0.592 | 0.48 | 0.398 | 0.408
